# Laboratory results taken from patent US11912970B2, “Universal microfluidic culture system to analyze and control cell dynamics” (The University of Chicago, priority 2017, dated 2024).
# B1: M-CSF: myeloid cytokine released during infection and inflammation, employed to induce HSCs differentiation (protein, UniProt P09603 33-554, looked up)
# Macrophage colony-stimulating …: EEVSEYCSHMIGSGHLQSLQRLIDSQMETSCQITFEFVDQEQLKDPVCYLKKAFLLVQDIMEDTMRFRDNTPNAIAIVQLQELSLRLKSCFTKDYEEHDKACVRTFYETPLQLLEKVKNVFNETKNLLDKDWNIFSKNCNNSFAECSSQDVVTKPDCNCLYPKAIPSSDPASVSPHQPLAPSMAPVAGLTWEDSEGTEGSSLLPGEQPLHTVDPGSAKQRPPRSTCQSFEPPETPVVKDSTIGGSPQPRPSVGAFNPGMEDILDSAMGTNWVPEEASGEASEIPVPQGTELSPSRPGGGSMQTEPARPSNFLSASSPLPASAKGQQPADVTGTALPRVGPVRPTGQDWNHTPQKTDHPSALLRDPPEPGSPRISSLRPQGLSNPSTLSAQPQLSRSHSSGSVLPLGELEGRRSTRDRRSPAEPEGGPASEGAARPLPRFNSVPLTDTGHERQSEGSFSPQLQESVFHLLVPSVILVLLAVGGLLFYRWRRRSHQEPQRADSPLEQPEGSPLTQDDRQVELPV
# B2: Jagged: signaling ligand whose receptor is highly expressed during mouse forebrain development (protein, UniProt Q9QXX0 34-1218, looked up)
# Protein jagged-1: QFELEILSMQNVNGELQNGNCCGGVRNPGDRKCTRDECDTYFKVCLKEYQSRVTAGGPCSFGSGSTPVIGGNTFNLKASRGNDRNRIVLPFSFAWPRSYTLLVEAWDSSNDTIQPDSIIEKASHSGMINPSRQWQTLKQNTGIAHFEYQIRVTCDDHYYGFGCNKFCRPRDDFFGHYACDQNGNKTCMEGWMGPDCNKAICRQGCSPKHGSCKLPGDCRCQYGWQGLYCDKCIPHPGCVHGTCNEPWQCLCETNWGGQLCDKDLNYCGTHQPCLNRGTCSNTGPDKYQCSCPEGYSGPNCEIAEHACLSDPCHNRGSCKETSSGFECECSPGWTGPTCSTNIDDCSPNNCSHGGTCQDLVNGFKCVCPPQWTGKTCQLDANECEAKPCVNARSCKNLIASYYCDCLPGWMGQNCDININDCLGQCQNDASCRDLVNGYRCICPPGYAGDHCERDIDECASNPCLNGGHCQNEINRFQCLCPTGFSGNLCQLDIDYCEPNPCQNGAQCYNRASDYFCKCPEDYEGKNCSHLKDHCRTTTCEVIDSCTVAMASNDTPEGVRYISSNVCGPHGKCKSQSGGKFTCDCNKGFTGTYCHENINDCESNPCKNGGTCIDGVNSYKCICSDGWEGAHCENNINDCSQNPCHYGGTCRDLVNDFYCDCKNGWKGKTCHSRDSQCDEATCNNGGTCYDEVDTFKCMCPGGWEGTTCNIARNSSCLPNPCHNGGTCVVNGDSFTCVCKEGWEGPICTQNTNDCSPHPCYNSGTCVDGDNWYRCECAPGFAGPDCRININECQSSPCAFGATCVDEINGYQCICPPGHSGAKCHEVSGRSCITMGRVILDGAKWDDDCNTCQCLNGRVACSKVWCGPRPCRLHKSHNECPSGQSCIPVLDDQCFVRPCTGVGECRSSSLQPVKTKCTSDSYYQDNCANITFTFNKEMMSPGLTTEHICSELRNLNILKNVSAEYSIYIACEPSLSANNEIHVAISAEDIRDDGNPVKEITDKIIDLVSKRDGNSSLIAAVAEVRVQRRPLKNRTDFLVPLLSSVLTVAWVCCLVTAFYWCVRKRRKPSSHTHSAPEDNTTNNVREQLNQIKNPIEKHGANTVPIKDYENKNSKMSKIRTHNSEVEEDDMDKHQQKVRFAKQPVYTLVDREEKAPSGTPTKHPNWTNKQDNRDLESAQSLNRMEYIV
# Legend:
# Assay type in all cases: cell-based, mouse
# mice HSCs = assay: M-CSF induced differentiation of mice HSCs on chip; conditions: media replacement through the buffering layer
# From the text: FIG. 11B(I) depicts the culture of mice HSCs cells in suspension mode, and (II) depicts the differentiation of mice HSCs cells by introducing M-CSF differentiation media.
# Murine hematopoietic stem cells (HSC) are isolated by FACSAria III flow cytometer (BD Biosciences) as Lin−/c-Kit+/Sca-1+/CD48−/CD150+/CD34− (lineage, Lin: CD3e/CD11b/CD19/CD41/B220/Gr-1/Ter-119), which are approximately 50% pure HSCs. Macrophage colony-stimulating factor (M-CSF), a myeloid cytokine released during infection and inflammation, is employed to induce HSCs differentiation. Human CD34+ cells were isolated from mononuclear cells using EasySepTM human CD34 positive selection kit (Stemcell Technologies, Vancouver, BC, Canada). CD34+CD38−CD45RA−CD90+CD49f+ HSCs were sorted using a FACSAria III flow cytometer (BD Biosciences). Pro- and anti-inflammatory cytokines including TNF, IFN[…], IL-6, IP10 and MCP-1 are introduced into the cellular environment as single ligand and in combination. Embryonic NSCs with Hes-GFP and Dcx-RFP reporters were isolated at embryonic day 13.5 from a transgenic mice carrying Hes-GFP and Dcx-RFP using standard protocol (Woo, et al., 2009; Basak, et al., 2007). The resulting primary cells were verified to carry both Hes5-GFP and Dcx-RFP after isolation and allowed to grow for few passages before use in the experiments (Giachino, et al., 2009). […]
# [1] = system: Hes5-GFP expression in NSCs; assay: NSCs Hes5-GFP expression under sequential ligand inputs (permutation test and decision tree analysis); conditions: sequential input
# From the text: (§1) Murine hematopoietic stem cells (HSC) are isolated by FACSAria III flow cytometer (BD Biosciences) as Lin−/c-Kit+/Sca-1+/CD48−/CD150+/CD34− (lineage, Lin: CD3e/CD11b/CD19/CD41/B220/Gr-1/Ter-119), which are approximately 50% pure HSCs. Macrophage colony-stimulating factor (M-CSF), a myeloid cytokine released during infection and inflammation, is employed to induce HSCs differentiation. Human CD34+ cells were isolated from mononuclear cells using EasySepTM human CD34 positive selection kit (Stemcell Technologies, Vancouver, BC, Canada). CD34+CD38−CD45RA−CD90+CD49f+ HSCs were sorted using a FACSAria III flow cytometer (BD Biosciences). […]
# (§2) For image acquisition, a Nikon Ti-ECLIPSE microscope with an automated translation stage and a digital CMOS camera (ORCA-Flash 4.0, Hamamatsu, Japan) was used. […] Bright field and fluorescence images were acquired and analyzed using a customized MATLAB program (Mathworks, […]). The algorithm extracts single cell traces including position, nuclear and cytoplasm fluorescence level. For example, the 3T3 cell nuclear area in each image is identified via the fluorescent nuclear marker GFP, and then the mean value of the nuclear intensity of the p65-DsRed marker is measured, and plotted as a function of time. […]
# NSCs [2] = assay: NSCs proliferation (cell number) under sequential ligand inputs (permutation test and decision tree analysis); conditions: sequential input, ligand added at day 1
# From the text: as §1, §2
# NSCs [3] = assay: NSCs proliferation (cell number) under combinatorial ligand inputs (permutation test and decision tree analysis); conditions: combinatorial input, decision tree, without PACAP
# From the text: as §1, §2
molecule,measurement,setting,value
B1,response of HSCs to ligand input,mice HSCs,instantaneous response
B2,effect on Hes5 expression,[1]; DLL added before Jagged in the first 3 days,enhance Hes5 expression
same,Hes5 expression relative to control,[1]; ligand added at day 1,94.5 % of the control
same,cell number relative to control,NSCs [2],111.0 % of the control
same,"cell number, mean ratio relative to control",NSCs [3]; Jagged present,1.14
same,"cell number, mean ratio relative to control",NSCs [3]; Jagged with DLL also added,1.08
